Results on two molecules are retold here after article PMC6218797, “A Novel Thermostable GH3 β-Glucosidase from Talaromyce leycettanus with Broad Substrate Specificity and Significant Soybean Isoflavone Glycosides-Hydrolyzing Capability” (BioMed Research International, 2018).

The target of one series is T1, Bgl3B (Rasamsonia emersonii, UniProt A0A343J2C3).
T1 construct: pPIC9, secreted from Pichia pastoris GS115; N-glycosylated, about 100 kDa on SDS-PAGE
T1 sequence (A0A343J2C3 1-841): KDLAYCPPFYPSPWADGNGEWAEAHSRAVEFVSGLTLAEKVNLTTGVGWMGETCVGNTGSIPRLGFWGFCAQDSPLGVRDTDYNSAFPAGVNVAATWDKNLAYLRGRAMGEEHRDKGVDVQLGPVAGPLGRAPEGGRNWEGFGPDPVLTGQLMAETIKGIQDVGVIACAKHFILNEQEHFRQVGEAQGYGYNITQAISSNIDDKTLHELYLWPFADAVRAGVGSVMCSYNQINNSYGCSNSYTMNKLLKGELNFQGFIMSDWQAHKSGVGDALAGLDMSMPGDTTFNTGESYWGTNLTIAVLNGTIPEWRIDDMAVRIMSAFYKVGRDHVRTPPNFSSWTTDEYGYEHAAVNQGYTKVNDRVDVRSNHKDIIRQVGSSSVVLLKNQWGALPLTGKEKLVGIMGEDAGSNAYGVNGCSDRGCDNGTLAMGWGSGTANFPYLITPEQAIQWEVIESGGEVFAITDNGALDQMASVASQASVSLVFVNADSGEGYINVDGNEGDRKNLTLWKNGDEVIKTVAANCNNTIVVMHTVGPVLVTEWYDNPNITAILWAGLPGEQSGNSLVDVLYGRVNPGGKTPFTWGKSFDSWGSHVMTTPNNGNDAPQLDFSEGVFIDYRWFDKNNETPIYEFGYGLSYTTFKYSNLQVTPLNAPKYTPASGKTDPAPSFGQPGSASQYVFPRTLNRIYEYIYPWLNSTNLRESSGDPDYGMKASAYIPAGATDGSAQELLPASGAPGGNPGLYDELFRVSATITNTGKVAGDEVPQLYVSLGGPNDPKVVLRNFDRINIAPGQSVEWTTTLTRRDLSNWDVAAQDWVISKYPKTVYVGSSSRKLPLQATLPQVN
The series can be described thus: pNP release at […] nm, Dixon plot. It is filed as biochemical. Particulars: substrate pNPG 3 or 4 mM; pH 4.5, 65°C, citric acid-Na2HPO4; inhibition mode not stated.

Substrate in the series “purified protein”: O=[N+]([O-])c1ccc(O[C@@H]2O[C@H](CO)[C@@H](O)[C@H](O)[C@H]2O)cc1
Description: purified protein. To be noted: pH 4.5, 65°C, 5 min, 0.2-1.5 mM substrate.

Turning to `OC[C@H]1OC(O)[C@H](O)[C@@H](O)[C@@H]1O` (stereo partly drawn) [glucose], the Ki – broadly, a dissociation constant, usually derived from enzyme kinetics or from competition with a known ligand – on Bgl3B was 7.1 mM.

B1: Bgl3B (Rasamsonia emersonii) (protein)
chain: KDLAYCPPFYPSPWADGNGEWAEAHSRAVEFVSGLTLAEKVNLTTGVGWMGETCVGNTGSIPRLGFWGFCAQDSPLGVRDTDYNSAFPAGVNVAATWDKNLAYLRGRAMGEEHRDKGVDVQLGPVAGPLGRAPEGGRNWEGFGPDPVLTGQLMAETIKGIQDVGVIACAKHFILNEQEHFRQVGEAQGYGYNITQAISSNIDDKTLHELYLWPFADAVRAGVGSVMCSYNQINNSYGCSNSYTMNKLLKGELNFQGFIMSDWQAHKSGVGDALAGLDMSMPGDTTFNTGESYWGTNLTIAVLNGTIPEWRIDDMAVRIMSAFYKVGRDHVRTPPNFSSWTTDEYGYEHAAVNQGYTKVNDRVDVRSNHKDIIRQVGSSSVVLLKNQWGALPLTGKEKLVGIMGEDAGSNAYGVNGCSDRGCDNGTLAMGWGSGTANFPYLITPEQAIQWEVIESGGEVFAITDNGALDQMASVASQASVSLVFVNADSGEGYINVDGNEGDRKNLTLWKNGDEVIKTVAANCNNTIVVMHTVGPVLVTEWYDNPNITAILWAGLPGEQSGNSLVDVLYGRVNPGGKTPFTWGKSFDSWGSHVMTTPNNGNDAPQLDFSEGVFIDYRWFDKNNETPIYEFGYGLSYTTFKYSNLQVTPLNAPKYTPASGKTDPAPSFGQPGSASQYVFPRTLNRIYEYIYPWLNSTNLRESSGDPDYGMKASAYIPAGATDGSAQELLPASGAPGGNPGLYDELFRVSATITNTGKVAGDEVPQLYVSLGGPNDPKVVLRNFDRINIAPGQSVEWTTTLTRRDLSNWDVAAQDWVISKYPKTVYVGSSSRKLPLQATLPQVN
In the case of B1, in “purified protein”, the Michaelis-Menten constant (Km) (as a rule, the concentration of substrate that gives half-maximal velocity) amounted to 1030 µM and the kcat (in general, the maximal rate divided by the concentration of active sites) is 714 s⁻¹.
